Laboratory results taken from PMC8682759.

B1: AcP-TRap2 (structured_RNA)
RNA: GGAUCCAAGCUUGUUUGGCAUUCCACGUCGAUAAAAGAUUGGCCUAGAUAAAUUCGGAGCUUAAAAUUCCCUCCUAUCUUUUGCUUUCGACGGAGAAUUC
B2: AcP-TRap4 (structured_RNA)
RNA: GGAUCCAAGCUUGUUUGGCCCAAUUCCUCGUCUUCAGACUGGCCUAGAUAAAUUCGGAGCUUGUUCACAACCUCUACUUCCUGCUUUCGACGGAGAAUUC
B3: AcP-TRap3 (structured_RNA)
RNA: GGAUCCAAGCUUGUUUGGCCCAAUAACGUCGAUUGAUUGUGGCCUAGAUAAAUUCGGAGCUUUCAAUGAAUUACACAACAAUGCUUUCGACGGAGAAUUC
B4: AcP-TRap1 (structured_RNA)
RNA: GGAUCCAAGCUUGUUUGGCUCCAACCGUCCCCGCGUAUAUGGCCUAGAUAAAUUCGGAGCUUUUUGCCCAUCCUCAUAUAUUGCUUUCGACGGAGAAUUC

Target: beta-actin (monomeric, G-actin) (human, UniProt P60709 2-375)
Assay: fluorescence turn-on of BHQ1 probe; apparent; 10 mM Mg2+, BHQ1 probe; 10 mM Tris-HCl pH 7.6, 100 mM KCl, 10 mM MgCl2 (Kd assays), room temperature; RNA 3 uM with actin 3 uM preincubated 30 min at 25 C, then probe 1 uM (final) in 2

Binder | Kd [nM]
B1 | 600
B2 | 200
B3 | 1000
B4 | 1500
